From patent US20200377555A1 (Janssen / Centocor, published 2020)

What was measured:
UFV5369 = UFV5369 (influenza A H1N1 A/California/07/09)
UFV160655 [1] = molecular target: T1, UFV160655 (influenza A H1N1 A/Brisbane/59/07)
UFV160665 [2] = molecular target: T2, UFV160665 (influenza A H1N1 A/California/07/09)
UFV160656 [3] = molecular target: T3, UFV160656 (influenza A H1N1 A/California/07/09)
UFV160664 [4] = molecular target: T4, UFV160664 (influenza A H1N1 A/California/07/09)
UFV160655 [5] = molecular target: T1, UFV160655; assay: ELISA, polypeptide coated, antibody titrated; average of 3 independent assays
UFV160665 [6] = molecular target: T2, UFV160665; assay: as above
UFV160656 [7] = molecular target: T3, UFV160656; assay: as above
UFV160664 [8] = molecular target: T4, UFV160664; assay: as above

B1: CR6261 (antibody, V domains shown)
VH: EVQLVESGAEVKKPGSSVKVSCKASGGPFRSYAISWVRQAPGQGPEWMGGIIPIFGTTKYAPKFQGRVTITADDFAGTVYMELSSLRSEDTAMYYCAKHMGYQVRETMDVWGKGTTVTVSS
VL: QSVLTQPPSVSAAPGQKVTISCSGSSSNIGNDYVSWYQQLPGTAPKLLIYDNNKRPSGIPDRFSGSKSGTSATLGITGLQTGDEANYYCATWDRRPTAYVVFGGGTKLTVLG
Kd (UFV5369): 0.97 nM | Kd (UFV160655 [1]): 0.55 nM | Kd (UFV160665 [2]): 0.56 nM | Kd (UFV160656 [3]): 0.6 nM | Kd (UFV160664 [4]): 0.57 nM | EC50 (UFV160655 [5]): 0.396 nM | EC50 (UFV160665 [6]): 0.425 nM | EC50 (UFV160656 [7]): 0.432 nM | EC50 (UFV160664 [8]): 0.395 nM
